{
  "source": "patent US20180016614",
  "key": {"[1]": {"system": "His-tagged double mutant T7 RNA polymerase K183G, K190L expressed by C321.ΔA.759.T7.D"}, "[2]": {"system": "N-terminally 6-His-tagged T7 RNA polymerase (wild type) expressed by C321.ΔA.759.T7"}},
  "data": [
    {"substance": "Outer membrane protease VII (OmpT)", "values": [
      {"measurement": "proteolytic cleavage of double mutant T7RNAP in lysate (α-His western blot)", "setting": "[1]", "result": "the double mutant T7RNAP expressed by C321.ΔA.759.T7.D is not cleaved despite the presence of active OmpT in the cellular lysate"},
      {"measurement": "proteolytic cleavage of T7RNAP during lysate preparation (α-His western blot)", "setting": "[2]", "result": "the T7RNAP produced by the strain is cleaved near the N-terminus to yield a ˜21 kDa fragment"},
      {"measurement": "proteolytic cleavage of T7RNAP in lysate of the ompT knockout strain (α-His western blot)", "setting": "[2]", "result": "a Western blot revealed that in the absence of OmpT the T7RNAP is no longer cleaved"}
    ]}
  ]
}
